Measured values: the nanobody polyreactivity screen of Harvey et al. (2022)

Test: yeast display, Sf9 membrane polyspecificity reagent, FACS + sequencing; frameworks hold sequencing errors
Procedure, shortened: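 Nanobodies from a synthetic yeast display library (Saccharomyces cerevisiae BJ5465), induced 36–48 hours with galactose, were stained 1 hour at 4 °C with 10% biotinylated, detergent-solubilized Sf9 membrane reagent, enriched on streptavidin microbeads, then FACS-sorted. Anti-HA (expression) and streptavidin (reagent binding) fluorescence set low and high (top ~1%) gates. Polyreactivity labels come from the gate of origin. Genes were colony-PCR amplified, MiSeq 2 × 250 sequenced and filtered by CDR length.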

Sequence	polyreactivity (PSR sort gate)
QVQLVESGGGLVQAGGSLRLSCAASGFTFRSNAMGWYRQAPGKERELVAAISSNGGRTYYADSVKGRFTISRDNAKNTVYLQMNSLKPEDTAVYYCAARGGYSQKRHDSWGQGTQVTVSS	high polyreactivity
QVQLEESRRGLVQARGSLRLSCASSGYIFLYYALGCYRQAPGKERELVAAITTRGGRTYYADSVKGRFTISRDNAKNTVYVQMNSLKPEDTAVYYCAVEVSWSYYSYGYWGQGTQVTVSS	low polyreactivity
QVQLVESGGGLVQAGGSLRLSCAASGRTFLHNAMGWYRQAPGKERELVAAISSRGGSTYYADSVKGRFTISRDNAKNTVYLQMNSLKPEDTAVYYCAAYIYGTYYYWGQGTQVTVSS	high polyreactivity
QVQLVESGGGLVQAGGSLRLSCAASGSIFGFYAMGWYRQAPGKERELVAVISVSDGSTYYADSVKGRFTISRDNAKNTVYLQMNCLKPEDTAVYYCAATPRGSYGYYYWGQGTQVTVSS	low polyreactivity
QVHLVESGGGLVQAGGSLRLSCAASGSTFAGNTMGWYRQAPGKERELVASITSDGSTDYADSVKGRFTISRDNAKNTVYLQMNSLKPEDTAVYYCAIARGLSKMDSWGQGTQVTVSS	low polyreactivity
QVQLVETGRGLVQAGGSLRLSCAASGSTFWPNAMGWYRQAPGKDRELVAAITSGGGTKYADSVKGRFTISRDNAKNTVYLQMNSLKPEDTAVYYCAKRKGDRGAWNHAYGWEDVDYWGQGTQVTVSS	low polyreactivity
QVQLVESGGGLVQAGGSLRLSCSASGITFKRYAMGWYRQAPGTERELVAAITISACSTYYADSVKGRFTNSRDIAKNTVYLQMNSLKPEVTAVYYCAAVSYGSWYYYWGQGTHVTVSS	high polyreactivity
QVHLVESGGGLVQAGGSLRLSSAASGSIFYLNAMGWYRQAPGKERELVATISNGGSTNYADSVQGRFTISRDNAKNTVYLQMNSLKPEDTAVYYCDAASGGTVVGEGDYWGQGTQVTVSS	low polyreactivity
QVQLVESGGGLVQAGGSLRLSCAASGFIFPTNTMGWYRQAPGKEREFVARITRSGTNTYYADSVKGRFTISRDNAKNTVYLQMNSLKAEDTAVYYCARRGTSSYRRYWLDSASNMDYWGQGTQVTVSS	high polyreactivity
QVQLVESGGGLVQAGGSLRLSCAASGRIFVQNAMGWYRQAPGKERELVAAISASGGRTSYADSVKGRFTISRDNAKNTVYLQMNSLKPEDTAVYYCAALFRVYPLTKKYGYWGQGTQVTVSS	high polyreactivity
QVQLVESGGGLVQAGGSLRLSCAAYYYNMGWYRQAPGKESELVASITWSDVSTYYADSVKRRFTISRDNAKNTVYLQMNSLKPEDTAVYYCAKGTWADAYGYWGQGTQVTVSS	low polyreactivity
QVQLVESGGGLVQAGGSLRLSCAASGITFYDYAMGWYRQAPGKEREFFARITASGARTYYADSVKGRFTISRDNAKNTVYLQMNSLKPEDTAVYYCAVRGGRPSRRHYDKYDYWGQGTQVTVSS	low polyreactivity
QVQLVESGGVLVQAGGSLRLSCAASGLIFSRYVMGWYRQAPGKERELVAAISRSGGSTYYADSVKGRFTISRDNAKNTVYLQMNSLKPEDTAVYYCNKLAPAPEADDYWGQGTQLTVSS	high polyreactivity
QVQRVESGVGIVQAGGSLRLSSAASGFIFSRYAMGWYRQAPGNERQLVAAIRFSGSITYYADSVKGRFTISRDNAKNTVYLQMNSLKPEDTAVYYCAAPLTFFKRVYYWGQGTQLTVSS	high polyreactivity
QVQLVESGGGLVQAGGSHRLSCAASRRIFGYNAMGWYRKAPGKERELVAAIRYSGGRTYYADSVKGRFTISRDNAKNTVYLQMNSLKPEDTAVYYCAATAFDKLKVWYYYWGQGTQVTVSS	high polyreactivity
QVQLVESGGGLVLAGGSLRLSCAASGFTFLDNAMGWYRQAPGKERELVAAISGIGGSTSYADSVKGRFTISRDNAKNTVYLQMNSLKPEDTAVYYCATRLYKWSFTPKFEMDHWGQGTQVTVSS	low polyreactivity
QVQLVESCGGLVQAGGSLRLSCAASGSTFTIYAMGWYRQAPGKERELVAVISSSGGSTYYADSVKGRFTISRDNAKNTVYLQMNSLKPEDTAVYYCAADTRYFGGYLTLYYWGQGTQVTVSS	low polyreactivity
QVQLVESGGGLVQAGGSLRLSCAASGLTFLINAMGWYRQAPGKERELVAAITSSGGSTSYADSVKGRFTISRDNAKYTVYLQMNSLKPEDTAVYYCAADLNAYPQRAYDYWGQGTQVTVSS	low polyreactivity
QVQLVESGGGLVQAGGSLRLSCAASGSNFVPYTMGWYRQAPGKERELVASISYSVGTTYYADSVKGRFTISRDNAKNTVYLQMNSLKPEDTAVYYCAADWDESYSYRRYRHYDYWGQGTQVTVSS	low polyreactivity
QVQLVESGGGVVQAGGSLRLSCAASGRIFVVYVMGWYRQAPGKEREFVAAITWGGGNTYYADSVKGRFTISRDNAKNTVYLQMNSLKPEDTAVYYCAAADGDDTTFRYDYWGQGTQVTVSS	low polyreactivity
QVQLVESGGGLVQAGGSLRLSCAASGSISPYNAKGWYRQAPGKERELVAAISSGGRTYYAVSVKGRFTISRDNAKNTVYLQMNSLKPEDTAVYYCNKYPLRPYRGLGVYYRSDYWGQGTQVTVSS	high polyreactivity
QVQLVESGGGLVQAGGSLRLSCAASGSIFGNYVMGWYRQSPGKERELVAAISWSGGTNYADSVKGRFTISRDNAKNTVYLQMNSLKPEDTAVYYCATVIRGHKRFAYGYWGQGTQVTVSS	high polyreactivity

Sequence	polyreactivity (PSR sort gate)
QVQLVESGGGLVQAGGSLRLSCAASGRIFAAYAMGWYRQAPGKERELVAAITRRGSTYYADSVKGRFTISRDNDKKTVYFQMNSLKPEDTAVYYCNKVPLFQYSTAWYDYWGQGTQVTVSS	high polyreactivity
QVQLVESGGGLVQAGGSLRLSCAASGGIFQWYAMGWYRQAPGKVREFVAAITRRGGSTYYAYSVKGRFTISRDNAKNTVYLQMNSLKPEDTAVYYCAARPWADFDYWGQGTQVTVSS	low polyreactivity
QVQLVESAGGLVQAGGTLRLSCDASGFIIYYYAMGWYRQAPGKERELVAAISRGGSTYYADSVKGRFTISRDNAKNTGYLQMISLKPEDTAVYYCASEDFPVYSYYYWGQGSQVTVSS	high polyreactivity
QVQLVESGAGLVQAGGSLRLSCAASGITFRGYAMGWYRQAPGKERELVAAISSRGGSTYYADSVMGRFTISRDNAKNTVYLQMNSLKPEDTAVYYCNAVSGLYFTYTYDYWGQGTQVTVSS	high polyreactivity
QVQLVESGGGLVQAGGSLRLSCAASGSTFYQYDMGWSRQAPGKERELVATISWSATSTYYADSVKGRFTISRDNAKNTVYLQMNSLKPEDTAVYYCNADLGDVYGWLHYDYWGQGTQVTVSS	low polyreactivity
QVQLVESGGGLVQAGGSLRLSCASSGITFVRYAMAWYRPAPGKERELVAVISRGGITNYADSVKGRFTISRDNAKNTVYFQMNSLKPEDTGVYYCNREKRIRSSGGLYYWGQGTQVSVSS	high polyreactivity
QEQQQESGGGLVQAGGSQRLSCAASGYIFYFQYMGWYRQAPGKEREFVAAISDGANTNYADSVKGRFTISRDNAINTEYLQMNSLKPEDTAVYYCAVYADENYYYIYWGQGTQVTVSS	low polyreactivity
QVQLVESGGGLVQAGGSLRLSCAASGGIFRHNAMGWYRQAPGKEREFVAAISRSGGNTYYADSVKGRFTISRDNAKNTVYLQMNSLKPEDTAVYYCNKIEYDSWADHVYWGQGTQVTVSS	low polyreactivity
QVQLVESGGGLVQAGGSLRLSCAASGSTLSSYDMGWYRQAPGKERELVASISSGGSTYYADSVKGRFTISRDNAKNTVYLQMNSVKPEDTAVYYCLYWSYDWGQGTQVTVSS	low polyreactivity
QVQLVESRGGLVQAGGSLRLSCAASGRILDLNSMGWYRQAPGKEREFVAAISYSGGRTYYADSVKGRFTISRDNAKNTVYLQMNSLKPEDTAVYYCATDDVWKDGYWGQGTQVTVSS	low polyreactivity
QVQLVESGGGLVQAGGSIRLICAASGFIISWYAMGWYRQAPGKERELFAAISSGGSTTYADSVKGRFTISRDNAKNTVYLQMNSLKPEDTAVYYCNADQVYGYNYWGQGTQVTVSS	high polyreactivity
QVQLVESAGGLVQAGGSVRLSCAASGRIFGSYAMGWYRQAAGKERELVAAINWRGGSTFYADSVKGRFTISRDNAKNTVYLQMNSLKPEDTAVYYSARRGYLQSGDYWGHGTQVTVSS	low polyreactivity
QVQLVDSGGGLVQAGGSLRLSCAASGSIFGSNAMGWYRQAPGKERELVAAITWSDGSTYYADSVKGRFTISRDNAKNTVYLQMNSLKPEDTAVYYCATDYGYSWYDYWGQGTQVTVSS	low polyreactivity
QVQLVESGGGLVQAGGSLRLSCAASGRIFGAYAMGWYRQAPGKERELVAAITSRGGNTYYADSVKGRFTISRDNAKNTVYFQMNSLKPEDTAVYYWAARHDKRRQYYVGQSAFDYWGQGTQVTVSS	low polyreactivity
QVQLVESGGGLVQAGGSLRLRCAASGGTFNVYAMGWYRQAPGKERELVARITWNGGRTSYADSVKGRFTISRDNAKNTVYLQMNSLKPEDTAVYFCAAETRYKRIYPYGRATEDYWGQGTQVTVSS	high polyreactivity
QVQLVESGGGLVQAGGSLRLSCAASGRTVVNAMGWYRQAPGKERELVAAISSNGGRTYYADSVKGRFTISRDNAKNTVYLQMTSLKPEDTAVYYCAKGLGIRPTYYYWGQGTKVTVSS	high polyreactivity
QVQLVESGGGLVQAGGSLRLSCAASGFTFFTNAMGWYRQAPGKEREFVAAISKSGSRTYYADSVKGRFTISRDNAKNTVYLQMNSLKPEDTAVYYCAAGYVTLFGFYRYYLWGQGTQVTVSS	high polyreactivity
QVQLVESGGGLVQAGGSLRLSCAASGITFYGYVMGWYRQAPGKERELVAAISTSGGSTYYADSVKGRFTISRDNAKNTVYLQMNSLKPEDTAVYYCAKYLYPFYPDYDYWGQGTQVTVSS	high polyreactivity
QVQLVESGGGLVQAGGSLRLSCAASGSIFPWYAMGWYRQAPGKERELVAAISTGGSTYYADSVKGRFTISRDNAKNTVYLQMNSLKPEDTAVYYCAAAYGKYRFGYWGQGTQVTVSS	high polyreactivity
QVQHVESGGGLVQAGGSLRLSCAASGSTFDRYAMAWYRQAPGKERELVAAISRSTGRTNYADSVKGRFTISRDNAKNTVYLQMNSLIPEDTAVYYCAAYRYLRYDYWGQGTQVTVSS	high polyreactivity
QVQLVESGGGLVQAGGSLRLSCAASGFIFTPYAMGWYRQAPGKERELVAAISKSGADTFYADSVKGRFTISRDNAKNTVYLQMNSLKPEDTAVYYCAADDYWGYDYWGQGTQVTVSS	high polyreactivity
